We go through 19 molecules from patent US20260265403A1 (TJ BIOPHARMA SHANGHAI, published 2026).

Numbering of substitutions follows the chain as printed. Numbers in names are those of the source.

One experiment concerns the target T1, human CD24 on cells (human, UniProt P25063 27-59).
T1 chain (looked up): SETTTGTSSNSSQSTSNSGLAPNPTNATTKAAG
As to the kind of experiment: cell-based or functional assay.

The target in experiment [1] is T2, Human CD24 (human, UniProt P25063 27-59, limits assumed).
T2 chain (looked up): T1 chain (looked up)
As to the kind of experiment: SPR affinity ranking, 1:1 binding, analyte conc. 19.71 nM.

Experiment [2] deals with T2, Human CD24. As to the kind of experiment: affinity ranking; antibody as ligand, Human CD24 as analyte.

B1: 45-H1E4, IgG1, Kappa (antibody, V domains shown)
VH: QIQLVQSGPELKKPGETVKISCKASGYTFTTYGMSWMKQAPGKGLKWMGWINTYSGVPAYADDFKGRFAFSLDTSASTAYLQINNLKNEDTATYFCARSGYPWSPHSYSTDYWGQGISVTVSS
VL: DVLLTQTPLSLPVSLGDQASISCKSSQSIVHSNGNTYLEWYLQKPGQSPKRLIYKVSNRFSGVPDRFSGSGSGTDFTLKISRVEAEDLGVYYCFQGSHVPWTFGGGTKLEIK
As for B1, in the experiment with human CD24 on cells, the “EC50 of Phagocytosis assay, IgG1, Kappa; HEK293-CD24” value (“EC50 … IgG1, Kappa; HEK293-CD24” below) turned out to be 0.29 µg/mL; the “EC50 of Phagocytosis assay, IgG1, Kappa; MCF-7” value (shortened to “EC50 … IgG1, Kappa; MCF-7”) is 1.02 µg/mL; the “EC50 of Phagocytosis assay, IgG1, Kappa; NALM6” value (shortened to “EC50 … IgG1, Kappa; NALM6”) came to 1.25 µg/mL; the “EC50 of Phagocytosis assay, IgG1, Kappa; OVCAR3” value (shortened to “EC50 … IgG1, Kappa; OVCAR3”) was determined as 0.59 µg/mL.

B2: 80-F10A6, IgG4, Kappa (antibody, V domains shown)
VH: EVQLQQSGPVLVNPGASVKISCKASGYSFTGYYMNWVKQSPEKSLEWIGEVNPITGDTTYSQNFKAKTTLTVDRSSSTAYMQLKSLTSEDSAVYYCTRRDYGTSLDYWGQGTTLTVSS
VL: DVQITQSPSYLAASPGETITIHCRASKSISRYLAWYQEKPGKINTLLIYAGSTLHLGIPSRFSGSGSGTDFTLTISSLELEDFAMYYCQQHNEYPITFGAGTKLELK
With B2, in the experiment with human CD24 on cells, the “EC50 of Phagocytosis assay, IgG4, Kappa; HEK293-CD24” value stood at 0.86 µg/mL; the “EC50 of Phagocytosis assay, IgG4, Kappa; MCF-7” value stood at 2.4 µg/mL; the “EC50 of Phagocytosis assay, IgG4, Kappa; NALM6” value was 1.05 µg/mL; the “EC50 of Phagocytosis assay, IgG4, Kappa; OVCAR3” value came out at 0.37 µg/mL.

B3: 69-D5G10, IgG1, Kappa (antibody, V domains shown)
VH: EVKLEESGGGLVQPGGSMKLSCVVSGLTFSNHWMNWVRQSPEKGLEWVAQIQLKSDNYATRFAESVKGRFTISRDDSKSDVYLQMNNLRTEDTGIYYCTTGTDYWGQGTTLTVSS
VL: not shown
In the case of B3, in the experiment with human CD24 on cells, the “EC50 … IgG1, Kappa; HEK293-CD24” value turned out to be 0.22 µg/mL; the “EC50 … IgG1, Kappa; MCF-7” value is 0.42 µg/mL; the “EC50 … IgG1, Kappa; NALM6” value amounted to 0.43 µg/mL; the “EC50 … IgG1, Kappa; OVCAR3” value worked out at 8.44 µg/mL.

B4: Antibody No 1, lead clone of 4451H (HC N35G; LC K27A, T97I) (antibody, V domains shown)
VH: QVQLVQSGAEVKKPGASVKVSCKASGYDFTGYHMGWVRQAPGQGLEWMGEINPITSDKTFNQKFKSRVTMTRDTSISTAYMELSRLRSDDTAVYYCARRDYGTSLDYWGQGTTVTVSS
VL: DIQLTQSPSFLSASVGDRVTITCRASASISKYLAWYQQKPGKAPKLLIYAGSTLHSGIPSRFRGSGSGTEFTLTISSLQPEDFATYYCQQHNEYPIIFGQGTKLEIK
The term Kd denotes a measure of binding affinity in units of concentration. A lower Kd goes with tighter binding. Broadly, the koff is the rate constant with which the complex falls apart. Read a high koff as a short-lived complex. By kon is commonly meant the rate constant with which the complex forms. Read a high kon as fast association. As for B4, in the experiment with Human CD24 [1], binding was put at a Kd of 10.5 nM, the koff was 0.0132 s⁻¹ and the kon is 1.26e+06 M⁻¹ s⁻¹.

B5: Antibody No 8, lead clone of 4451H (HC T59Y; LC K27A, T97I) (antibody, V domains shown)
VH: B4 VH with G35N, T59Y
VL: B4 VL
In the experiment with Human CD24 [1], B5 returned a Kd of 15.8 nM, a koff of 0.0196 s⁻¹ and a kon of 1.24e+06 M⁻¹ s⁻¹.

B6: Antibody No 2, lead clone of 4451H (HC N35G; LC S30K, T97I) (antibody, V domains shown)
VH: B4 VH
VL: B4 VL with A27K, S30K
In the case of B6, in the experiment with Human CD24 [1], the Kd was 8.78 nM, the koff is 0.0249 s⁻¹ and the kon was found to be 2.83e+06 M⁻¹ s⁻¹.

B7: Antibody No 13, lead clone of 4451H (HC T59Y; LC L33G) (antibody, V domains shown)
VH: B4 VH with G35N, T59Y
VL: B4 VL with A27K, L33G, I97T
In the case of B7, in the experiment with Human CD24 [1], the Kd came to 9.68 nM, the koff came out at 0.0237 s⁻¹ and the kon stood at 2.45e+06 M⁻¹ s⁻¹.

B8: Antibody No 11, lead clone of 4451H (HC T59Y; LC K27A) (antibody, V domains shown)
VH: B4 VH with G35N, T59Y
VL: B4 VL with I97T
Consider B8, for which, in the experiment with Human CD24 [1], the Kd is 14.1 nM, the koff stood at 0.0171 s⁻¹ and the kon was determined as 1.21e+06 M⁻¹ s⁻¹.

B9: Antibody No 9, lead clone of 4451H (HC T59Y; LC S30K, T97I) (antibody, V domains shown)
VH: B4 VH with G35N, T59Y
VL: B4 VL with A27K, S30K
Consider B9, for which, in the experiment with Human CD24 [1], the Kd was determined as 11.4 nM, the koff turned out to be 0.06 s⁻¹ and the kon worked out at 5.27e+06 M⁻¹ s⁻¹.

B10: Antibody No 14, lead clone of 4451H (HC T59Y; LC T97I) (antibody, V domains shown)
VH: B4 VH with G35N, T59Y
VL: B4 VL with A27K
As to B10, in the experiment with Human CD24 [1], binding was characterised by a dissociation constant (Kd) of 8.3 nM, the koff was 0.0604 s⁻¹ and the kon is 7.28e+06 M⁻¹ s⁻¹.

B11: Antibody No 10, lead clone of 4451H (HC T59Y; LC L33G, T97I) (antibody, V domains shown)
VH: B4 VH with G35N, T59Y
VL: B4 VL with A27K, L33G
In the experiment with Human CD24 [1], B11 showed a Kd of 8.7 nM, a koff of 0.0175 s⁻¹ and a kon of 2.01e+06 M⁻¹ s⁻¹.

B12: Antibody No 18, lead clone of 4451H (HC N35G, T59Y; LC T97I) (antibody, V domains shown)
VH: B4 VH with T59Y
VL: B4 VL with A27K
In the experiment with Human CD24 [1], B12 gave a Kd of 8.83 nM, a koff of 0.015 s⁻¹ and a kon of 1.7e+06 M⁻¹ s⁻¹.

B13: Antibody No 4, lead clone of 4451H (HC N35G; LC K27A) (antibody, V domains shown)
VH: B4 VH
VL: B4 VL with I97T
Take B13: in the experiment with Human CD24 [1], binding was put at a Kd of 8.97 nM, the koff came to 0.0107 s⁻¹ and the kon was 1.19e+06 M⁻¹ s⁻¹.

B14: Antibody No 12, lead clone of 4451H (HC T59Y; LC S30K) (antibody, V domains shown)
VH: B4 VH with G35N, T59Y
VL: B4 VL with A27K, S30K, I97T
In the experiment with Human CD24 [1], B14 displayed a Kd of 11.1 nM, a koff of 0.168 s⁻¹ and a kon of 1.52e+07 M⁻¹ s⁻¹.

B15: Antibody No 5, lead clone of 4451H (HC N35G; LC S30K) (antibody, V domains shown)
VH: B4 VH
VL: B4 VL with A27K, S30K, I97T
Consider B15, for which, in the experiment with Human CD24 [1], the Kd came out at 7.89 nM, the koff was 0.0345 s⁻¹ and the kon turned out to be 4.37e+06 M⁻¹ s⁻¹.

B16: Antibody No 7, lead clone of 4451H (HC N35G; LC T97I) (antibody, V domains shown)
VH: B4 VH
VL: B4 VL with A27K
For B16, in the experiment with Human CD24 [1], binding was characterised by a dissociation constant (Kd) of 16.9 nM, the koff is 0.0141 s⁻¹ and the kon turned out to be 836000 M⁻¹ s⁻¹.

B17: VH2 + VL4 (humanized 4451) (antibody, V domains shown)
VH: B4 VH with G35N, M48I, R72V
VL: B4 VL with T22Y, A27K, K45R, I97T
notes: IgG expressed in HEK293
Take B17: in the experiment with Human CD24 [2], the Kd turned out to be 19.7 nM, the koff worked out at 0.0229 s⁻¹ and the kon came out at 1.16e+06 M⁻¹ s⁻¹.

B18: 63-C5A5, IgG1, Kappa (antibody, V domains shown)
VH: EVNLEESGGGLVQPGGSMEFSCVASGLTFSDHWMNWVRQSPEKGLEWVAQIQLKSDNYAIRYVESVKGRFSISRDDSKSSVYLQMNNLRAEDSGIYYCTTGTDYWGQGTTLTVSS
VL: not shown
Regarding B18, in the experiment with human CD24 on cells, the “EC50 … IgG1, Kappa; HEK293-CD24” value was determined as 0.4 µg/mL; the “EC50 … IgG1, Kappa; MCF-7” value is 0.74 µg/mL; the “EC50 … IgG1, Kappa; NALM6” value was 0.7 µg/mL; the “EC50 … IgG1, Kappa; OVCAR3” value was 8.48 µg/mL.

B19: 62-F7E9, IgG1, Kappa (antibody, V domains shown)
VH: QVQLQQPGAELVKPGASVKLSCKASGYTSTSYWLHWVKQRPGRGLEWIGRIDPNSGETKFNEKFKSQATLTVDKPSSTAYMQLNSLTSEDSAVYYCALYYYGSILFDYWGQGTTLTVSS
VL: ENVLTQSPAIMSASPGEKVTMTCRTSSIISSGFLHWYQQKSGASPKLWIYSTSNLASGVPARFSGSGSGTSYSLTISSVEAEDAATYYCQQYSGHPLTFGAGTKLELK
For the molecule B19, in the experiment with human CD24 on cells, the “EC50 … IgG1, Kappa; HEK293-CD24” value was determined as 5.15 µg/mL; the “EC50 … IgG1, Kappa; MCF-7” value was 2.08 µg/mL; the “EC50 … IgG1, Kappa; NALM6” value came to 8.62 µg/mL; the “EC50 … IgG1, Kappa; OVCAR3” value amounted to 1.63 µg/mL.
